Positions count from the first letter of the chain named. Numbers in names are those of the source.
Target: the molecule itself
Test: SEC-MALS

B1: mature IL-37 (Lys53 N-terminus) (ligand, human, UniProt Q9NZH6 53-218, looked up)
chain: KNLNPKKFSIHDQDHKVLVLDSGNLIAVPDKNYIRPEIFFALASSLSSASAEKGSPILLGVSKGEFCLYCDKDKGQSHPSLQLKKEKLMKLAAQKESARRPFIFYRAQVGSWNMLESAAHPGWFICTSCNCNEPVGVTDKFENRKHIEFSFQPVCKAEMSPSEVSD
  stoichiometry N: 2

B2: IL-37 R158A (ligand, human, UniProt Q9NZH6 53-218, looked up)
chain: B1 chain with R106A
  stoichiometry N: 2

Reference: publication doi:10.1101/2025.02.22.639629 (bioRxiv, 2025)
